Substitutions are numbered along the chain they refer to. Values belong to the binder of their own block, whether it stands above or below them. Where no end group is shown, it is not given here. The star is where a group is joined. Biotin = O=C1N[C@H]2[C@H](CS[C@H]2CCCCC(=O)*)N1; Ahx = NCCCCCC(=O)O
Experiments:
[1] = molecular target: T1, 1-15aa; assay: 15-mer peptide ELISA
T1 construct: also called alpha-synuclein peptide 1-15
T1 peptide: {Biotin-Ahx}-MDVFMKGLSKAKEGV
Procedure: (§1) Epitope mapping for the antibodies derived from stable hybridoma clones was determined using an indirect ELISA on a library of 15-mer peptides covering the entire sequence of human alpha-synuclein from 1 to 140aa. […] Results are expressed as optical density (O.D.). Each bar represents data for an individual antibody.
(§2) Serum-free supernatants were harvested from stable hybridomas. The supernatants containing antibodies of interest were then screened by an indirect ELISA assay to determine epitopes. Epitopes were first determined using a library of 15-mer peptides covering the entire sequence of human alpha-synuclein protein, spanning amino acids (aa) 1-140 with 9aa offset and 6aa overlap. […] Briefly, streptavidin-coated ELISA plates were blocked overnight at 4° C. […] Plates were washed with PBS/0.05% Tween® 20 and then incubated with the hybridoma supernatants at 1/100 dilution for 1 hour at 25° C. […] After final wash, plates were incubated 2 hours at 25° C. with alkaline phosphatase substrate (p-nitrophenyl phosphate disodium hexahydrate; pNPP, S0942, Sigma) and read the absorbance optical density (O.D.) signal at 405 nm using an ELISA plate reader (Tecan, Switzerland).

[2] = molecular target: T2, 37-51aa; assay: 15-mer peptide ELISA
T2 construct: also called alpha-synuclein peptide 37-51
T2 peptide: {Biotin-Ahx}-VLYVGSKTKEGVVHG
Procedure: as §1, §2

[3] = molecular target: T3, 82-96aa; assay: 15-mer peptide ELISA
T3 construct: also called alpha-synuclein peptide 82-96
T3 peptide: {Biotin-Ahx}-VEGAGSIAAATGFVK
Procedure: as §1, §2

[4] = molecular target: T4, 91-105aa; assay: indirect ELISA on biotinylated 15-mer peptide (streptavidin plate), supernatant 1/100
T4 construct: also called alpha-synuclein peptide 91-105
T4 peptide: {Biotin-Ahx}-ATGFVKKDQLGKNEE
Procedure: as §1, §2

[5] = molecular target: T3, 82-96aa; assay: as above
Procedure: as §1, §2

[6] = molecular target: T3, 82-96aa; assay: 15-mer peptide ELISA
Procedure: as §1, §2

[7] = molecular target: T5, 100-114aa; assay: 15-mer peptide ELISA;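 note: indirect ELISA of hybridoma supernatant antibodies (1/100, 1 h) binding immobilized 15-mer peptides spanning human alpha-synuclein 1-140 on streptavidin plates, read as optical density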
T5 peptide: {Biotin-Ahx}-LGKNEEGAPQEGILE
Procedure: as §1, §2

[8] = molecular target: T6, 109-123aa; assay: 15-mer peptide ELISA;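 note: indirect ELISA of hybridoma supernatant antibodies (1/100, 1 h) binding immobilized 15-mer peptides spanning human alpha-synuclein 1-140 on streptavidin plates, read as optical density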
T6 peptide: {Biotin-Ahx}-QEGILEDMPVDPDNE
Procedure: as §1, §2

[9] = molecular target: T4, 91-105aa; assay: indirect ELISA on biotinylated 15-mer peptide (streptavidin plate), supernatant 1/100
Procedure: as §1, §2

[10] = molecular target: T4, 91-105aa; assay: 15-mer peptide ELISA
Procedure: as §1, §2

[11] = molecular target: T5, 100-114aa; assay: indirect ELISA on biotinylated 15-mer peptide (streptavidin plate), supernatant 1/100
Procedure: as §1, §2

[12] = molecular target: T6, 109-123aa; assay: as above
Procedure: as §1, §2

[13] = molecular target: human full-length alpha-synuclein (human, UniProt P37840 1-140); assay: SPR, mAb captured
Procedure: (§3) Immobilization levels were evaluated following ethanolamine capping (Bound) and finally following regeneration (Final). Non-covalent immobilization of alpha-synuclein antibodies was performed using a target immobilization method of 2000 response units (RU).
(§4) Binding affinity of alpha-synuclein antibodies to monomeric or fibrillar alpha-synuclein species was performed using a single-cycle kinetics method. […] A dissociation phase of 900 sec followed the final 50 nM injection. Regeneration of the sensor to the goat anti-mouse antibody layer was achieved using 3 regenerations of 10 mM Glycine pH 1.7. […] Regeneration of the sensor to the goat anti-mouse antibody layer was achieved using 3 regenerations of 10 mM Glycine pH 1.7. Results obtained from single-cycle kinetics were evaluated by Biacore T200 evaluation software with 1:1 binding homogenous Langmuir model (with a global Rmax) with Cycle 5 as a blank subtraction. The following kinetic parameters were obtained: on-rate (ka), off-rate (kd), affinity constant (KD, ratio of kd by ka), maximum response (Rmax), and goodness of fit (Chi2).
(§5) Non-covalent capture of the alpha-synuclein antibodies was performed in three separate runs.

[14] = molecular target: alpha-synuclein fibrils (Homo sapiens (Human), UniProt P37840 1-140); assay: SPR, mAb captured
Procedure: as §3, §4, §5

[15] = molecular target: 28-42aa; assay: 15-mer peptide ELISA
Procedure: as §1, §2

[16] = molecular target: T4, 91-105aa; assay: 15-mer peptide ELISA
Procedure: as §1, §2

[17] = molecular target: 28-42aa; assay: indirect ELISA on biotinylated 15-mer peptide (streptavidin plate), supernatant 1/100
Procedure: as §1, §2

[18] = molecular target: T2, 37-51aa; assay: as above
Procedure: as §1, §2

[19] = molecular target: T1, 1-15aa; assay: as above
Procedure: as §1, §2

B1: ACI-7088-4303H6-Ab1 (antibody, V domains shown)
VH: EVQLQQSGAELVRPGASVKLSCTASGFNIQDDYMHWVKQRPEQGLEWIGWIDPENGDTEYASKFQGKATLTADTSSNTAYLQLSRLTSEDTAVYYCTTAGSGVQLFDYWGQGTTLTVSA
VL: DILMTQSQKFMSTSVGDRVSVTCKASQNVGTNVAWYQQKPGQSPKPLISSASSRYSGVPDRFTGSGSGTDFTLTISNVQSEDLADYFCQQYNRYPLTFGAGTKLELK
notes: mouse hybridoma mAb; tied by the hybridoma code 4303H6D7; also called 4303H6D7
binding result [1]: no binding (tested: supernatant 1/100)
binding result [2]: no binding (tested: supernatant 1/100)
binding result [3]: no binding (tested: supernatant 1/100)
binding result [4]: binds

B2: ACI-7089-4418C5-Ab1 (antibody, V domains shown)
VH: DGQLQESGPGLVKPSQSLSLTCSVTGYSITSGYYWNWIRQFPGNKLEWMGYINYDGSNNYNPSLKNRISITRDTSKNQFFLKFNFVTTEDTATYYCVRGDVYWGQGTTLTVSS
VL: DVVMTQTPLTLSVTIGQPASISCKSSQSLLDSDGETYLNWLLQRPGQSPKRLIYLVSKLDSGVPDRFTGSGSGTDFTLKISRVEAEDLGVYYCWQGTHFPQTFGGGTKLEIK
notes: mouse hybridoma mAb; also called 4418C5G1
binding result [5]: binds

B3: ACI-7089-4409F1-Ab1 (antibody, V domains shown)
VH: DVQLQESGPGLVKPSQSLSLTCSVTGYSITRGYYWNWIRQFPGNKLEWMGYISYDGSNNYNPSLRNRISITRDTSKNQFFLKLKSVTTEDTATYFCARGDSNWGQGTTLTVSA
VL: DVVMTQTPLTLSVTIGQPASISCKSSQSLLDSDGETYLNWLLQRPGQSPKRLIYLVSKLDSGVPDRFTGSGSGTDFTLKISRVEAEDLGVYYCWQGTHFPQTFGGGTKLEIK
notes: mouse hybridoma mAb; also called 4409F1A8
binding result [1]: no binding (tested: supernatant 1/100)
binding result [2]: no binding (tested: supernatant 1/100)
binding result [5]: binds

B4: ACI-8033-4F3-Ab1 (antibody, V domains shown)
VH: EVQLQQSGPELVKPGASVKISCKASGYTFTDYYMNWVKQSHGKSLEWIGDINPNTGTNSYNQKFKGRASLTVDKFSSAAYMELRSLTSEDSAVYYCARTGYGDPISSYYYALDYWGQGTSVTVSS
VL: DIVMSQSPSSLAVSAGEKVTMSCKSSQSLLNSRTRKNYLAWYQQKPGQSPKLLIYWASTRESGVPDRFTGSGSGTDFTLTISSVQAEDLAVYYCKQSYNLWTFGGGTKLEIK
notes: mouse hybridoma mAb; also called 917.4F3F4G6
binding result [6]: no binding (tested: supernatant 1/100)
binding result [7]: no binding (tested: supernatant 1/100)
binding result [8]: no binding (tested: supernatant 1/100)
binding result [9]: binds

B5: ACI-7088-4301H3-Ab2 (antibody, V domains shown)
VH: EVQLQQSGPELVKPGASVKISCKASGYTFADYFMNWVKQSHGKSLEWIGDINPNNGGTTYNQKFKGKATLTVDKSSNTAYMELRSLTSEDSAVYYCARGRNYAMDYWGQGTSVTVSS
VL: B4 VL with W56S, S73F, N99D
notes: mouse hybridoma mAb; also called 4301H3A5
binding result [1]: no binding (tested: supernatant 1/100)
binding result [2]: no binding (tested: supernatant 1/100)
binding result [3]: no binding (tested: supernatant 1/100)
binding result [4]: binds

B6: ACI-8033-17F5-Ab1 (antibody, V domains shown)
VH: B5 VH with A30T, N55I, G56D, G57V, T59N, N77S, N101D, Y106F
VL: B4 VL with N99D
notes: mouse hybridoma mAb; also called 917.17F5F5G9
binding result [6]: no binding (tested: supernatant 1/100)
binding result [7]: no binding (tested: supernatant 1/100)
binding result [8]: no binding (tested: supernatant 1/100)
binding result [9]: binds

B7: ACI-8033-5A12-Ab1 (antibody, V domains shown)
VH: QVHLKQSGADLVRPGASVKLSCKASGYTFTDYYINWVKQRPGQGLEWIARIYPGSGNTYYNEKFKGRATLSAEKSSTTAYMQLSSLTSEDSAVYFCVVGYYGAWGQGTTLTVSS
VL: DVVMTQTPLSLPVSLGDQASISCRSSQSLVHSNGKTHLHWYLQKPGQSPKLLIYKVSNRFSGVPDRFSGSGSGTDFTLKISRVEAEDLGVYFCSQSTHVPWTFGGGTKLEIK
notes: mouse hybridoma mAb; also called 917.5A12A11C9
binding result [6]: no binding (tested: supernatant 1/100)
binding result [10]: no binding (tested: supernatant 1/100)
binding result [11]: binds
binding result [12]: binds

B8: ACI-7089-4417G6-Ab1 (antibody, V domains shown)
VH: QVQLQQSGAELVRPGASVTLSCKASGYTFTGYEMHWVKQTPVHGLEWIGAIDPETGGTAYIQKFKGKATLTADKSSSTAYMELRSLTSEDSAVYYCTRGWDYFDYWGQGTTLTVSA
VL: B7 VL with V30L, K35F, H37Y, K55R, W101Y
notes: mouse hybridoma mAb; also called 4417G6B12
Kd [13]: 22.6 nM
koff [13]: 5.58 s⁻¹
kon [13]: 2.47e+08 M⁻¹ s⁻¹
Kd [14]: 48.7 nM
koff [14]: 0.00874 s⁻¹
kon [14]: 179000 M⁻¹ s⁻¹
binding result [1]: no binding (tested: supernatant 1/100)
binding result [15]: no binding (tested: supernatant 1/100)
binding result [3]: no binding (tested: supernatant 1/100)
binding result [16]: no binding (tested: supernatant 1/100)

B9: ACI-8033-18D12-Ab1 (antibody, V domains shown)
VH: QVQLQQPGAELVKPGASVKMSCKASGYTFTSYWITWVRQRPGQGLDWIGDIYPGGGVTNYNEKFKTKATLTVDTSSSTAYMHLSSLTSEDSAVYFCATAQTTFAHWGQGTLVTVSA
VL: DVLMTQTPLSLPVSLGDQASISCRSSQNIAHNNGNTYLEWYLQKPGQSPKLLIYKVSNRFSGVPDRFSGSGSGTDFTLKISRVEAEDLGVYYCFQGSHVPRTFGGGTKLEIK
notes: mouse hybridoma mAb; also called 917.18D12F10D6
binding result [6]: no binding (tested: supernatant 1/100)
binding result [10]: no binding (tested: supernatant 1/100)
binding result [8]: no binding (tested: supernatant 1/100)
binding result [11]: binds

Continued, values first:

binding result [1]: no binding (tested: supernatant 1/100)
binding result [3]: no binding (tested: supernatant 1/100)
binding result [16]: no binding (tested: supernatant 1/100)
binding result [17]: binds
binding result [18]: binds
B10: ACI-7087-4119E10-Ab2 (antibody, V domains shown)
VH: QVQLQQSGAELVRPGASVTLSCKASGYTFSDYEMNWVKQTPVHGLEWIGAIDPETGGTAYNQKFKGKAILTSDKSSSTAYMELRSLTSEDSAVYYCTRFLLIDFDYWGQGTTLTVSS
VL: B9 VL with N28S, A30V, N32S, Q43K, P45A, L51V, R101Y, K108E
notes: mouse hybridoma mAb; also called 4119E10D12

binding result [1]: no binding (tested: supernatant 1/100)
binding result [3]: no binding (tested: supernatant 1/100)
binding result [16]: no binding (tested: supernatant 1/100)
binding result [18]: binds
B11: ACI-7088-4303A3-Ab1 (antibody, V domains shown)
VH: QVQLQQSGAELVRPGASVTLSCKASGYTFTDYEMHWVKQTPVHGLEWIGVIDPETGGAVQNQKFKGKAILTADNSSSTAYMDLRSLTSEDSAVYNCAMGAALRLAYWGQGTLVTVSS
VL: B9 VL with N28S, A30V, N32S, T36S, S81N, R101F, G105S
notes: mouse hybridoma mAb; also called 4303A3E4

binding result [2]: no binding (tested: supernatant 1/100)
binding result [3]: no binding (tested: supernatant 1/100)
binding result [19]: binds
binding result [4]: binds
B12: ACI-7088-4305H7-Ab1 (antibody, V domains shown)
VH: EVQLQQSGAELVRPGASVKLSCTASGFNIKDDYMHWVKQRPEQGLEWIGWIDPENGDTEYASKFQGKATMIADTSSNTAYLQLSSLTSEDTAVYYCKTWGTTQALFPYWGQGTLVTVSS
VL: DIVMTQSQKFMSTSVGDRVSITCKASQNVGTAVGWYQQKAGQSPKLLIHSASNRYTGVPDRFTGSGSGTDFTLTINNMQSEDLADYFCQQYRSYPLTFGAGTKLELK
notes: mouse hybridoma mAb; also called 4305H7A4

binding result [1]: no binding (tested: supernatant 1/100)
binding result [2]: no binding (tested: supernatant 1/100)
binding result [16]: no binding (tested: supernatant 1/100)
binding result [5]: binds
B13: ACI-7089-4418F6-Ab1 (antibody, V domains shown)
VH: QVQLQQSGAELARPGASVKVSCKASGYTFTSSGISWLKHRTGQGLEWIGDIYPRSGNTYYNEKFKDKATLTADKSSSTAYMELRSLTSEDSAVYFCSSGNYWGQGTTLTVSS
VL: DIVITQDDLSNPVTSGESVSISCRSSKSLLYKDGKTYLNWFLQRPGQSPQLLIYLMSTRASGVSDRFSGSGSGTDFTLEISRVKAEDVGVYYCQQLLEYPLTFGAGTKLELK
notes: mouse hybridoma mAb; also called 4418F6G7

binding result [1]: no binding (tested: supernatant 1/100)
binding result [3]: no binding (tested: supernatant 1/100)
binding result [16]: no binding (tested: supernatant 1/100)
binding result [17]: binds
binding result [18]: binds
B14: ACI-7088-4301D5-Ab2 (antibody, V domains shown)
VH: QVQLQQSGPELVRPGASVKISCKASGYRFTSYYIHWVKQRPGQGLEWIGWIYPGSDNTKHNDKFKGKATLTADTSSSTAYMQLSSLTSEDSAVYFCARDYDVGFGYWGQGTLVTVSS
VL: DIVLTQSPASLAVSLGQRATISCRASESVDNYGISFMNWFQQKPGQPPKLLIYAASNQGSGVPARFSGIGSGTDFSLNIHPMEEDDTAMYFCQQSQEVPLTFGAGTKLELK
notes: mouse hybridoma mAb; also called 4301D5B10

Reference: US20220298231A1 (AC IMMUNE, published 2022)
